The experiment has as its target T1, human FLT3 (human, UniProt P36888 27-993).
T1 construct: On transfected CHO cells, or on the FLT3 positive human AML cell lines EOL-1 / MV4-11 where the row says so; also called hu FLT3; full length human FLT3
Description: FACS, scFv on CHO-human FLT3 pre-incubated with FLT3 ligand (competitor).
Description: The detection was performed using mouse anti-FLAG+PE-conjugated goat anti-mouse and the Fluorescence median detected by FACS (median (+ligand)/median (w/o ligand)*100%)
Afterwards cells were not washed but directly stained with FLT3 binder (scFv's). […] As negative control, cells were incubated with an unspecific scFv instead of FLT3 scFv.
For the evaluation of the data, the fluorescence median was detected by FACS.

B1: FL-51 scFv (scFv)
scFv: QVTLKESGPTLVKPTETLTLTCTVSGFSLRNVRMGVSWIRQPPGKCLEWLAHISSNDEKSYSTSLRSRLTISTDTSKSQVVLTMTNMDPVDTATYYCARMPGDSNTWRGFFDYWGQGTLVTVSSGGGGSGGGGSGGGGSEIVMTQSPATLSVSPGERATLSCRTSQSVNNNLAWYQQKPGQAPRLLIYGASTRATGIPARFSGSGSGTEFTLTISSLQPEDFATYYCLQHNSYPLTFGCGTKVEIK
notes: periplasmic prep
Consider B1, for which the “median [+ligand]/median [w/o ligand]*100” value is no less than 75%.

B2: FL-58 scFv (scFv)
scFv: QVTLKESGPTLVKPTETLTLTCTVSGFSLRNVRMGVSWIRQPPGKALEWLAHISSNDEKSYSTSLRSRLTISTDTSKSQVVLTMTNMDPVDTATYYCARMPGDSNTWRGFFDYWGQGTLVTVSSGGGGSGGGGSGGGGSEIVMTQSPATLSVSPGERATLSCRTSQSVNNNLAWYQQKPGQAPRLLIYGASTRATGIPARFSGSGSGTEFTLTISSLQPEDFATYYCLQHNSYPLTFGGGTKVEIK
notes: periplasmic prep
For the molecule B2, the “median [+ligand]/median [w/o ligand]*100” value was no less than 75%.

B3: FL-56 scFv (scFv)
scFv: QVTLKESGPVLVKPTETLTLTCTVSGFSLRNVRMGVSWIRQPPGKALEWLAHIFSNDEKLYTTSLKSRLTISKDTSKSQVVLTMTNMDPEDTATYYCARIVGYGTGWYGYFDYWGQGTQVTVSSGGGGSGGGGSGGGGSDIQMTQSPSSLSASIGDRVTITCRASQDIRDDLGWYQREPGKAPKRLIYATSIRQSGVPSRFSGSGSGTEFTLTISGLQPEDFATYFCLQHHSFPLTFGGGTKVDIK
notes: periplasmic prep
As for B3, the “median [+ligand]/median [w/o ligand]*100” value was no less than 75%.

B4: FL-49 scFv (scFv)
scFv: QVTLKESGPTLVKPTETLTLTCTVSGFSLNNARMGVSWIRQPPGKCLEWLAHIFSNDEKSYSTSLKNRLTISKDSSKTQVVLTMTNVDPVDTATYYCARIVGYGTGWFGYFDYWGQGTQVTVSSGGGGSGGGGSGGGGSDIQMTQSPSSLSASVGDRVTITCRASQDIRTDLAWYQQKPGKAPKRLIYAASSLQSGVPSRFSGSGSGTEFTLTISSLQPEDFATYYCLQHNRYPLTFGCGTKVDIK
notes: periplasmic prep
In the case of B4, the “median [+ligand]/median [w/o ligand]*100” value is no less than 75%.

B5: FL-57 scFv (scFv)
scFv: QVTLKESGPTLVKPTETLTLTCTFSGFSLRYARMGVSWIRQPPGKALEWLAHISSNDEKSFSTALESRLTISTDTSKSQMVLTMTNVDPVDTATYYCARMPGDSNTWRGFFDYWGQGTLVTVSSGGGGSGGGGSGGGGSEIVMTQSPGTLSLSPGERATLSCRTSQTVTNSYIAWYQQRPGQAPRLLIYGTSTRATGIPDRFSGSGSGTDFTLTISRLEPEDFAVYYCQKYGSSPLTFGGGTKLEIK
notes: periplasmic prep
Consider B5, for which the “median [+ligand]/median [w/o ligand]*100” value was no less than 75%.

B6: FL-9 scFv (scFv)
scFv: QVTLKESGPTLVKPTETLTLTCTVSGFSLSNARMGVSWIRQPPGKALEWLAHIFSNDEKSYSTSLKSRLTISKDTSKSQVVLTMTNMDPVDTATYYCARIPGYGGNFYYHYYGMDVWGQGTTVTVSSGGGGSGGGGSGGGGSDIQMTQSPSSLSASVGDRVTITCRASQGIRNDLAWYQQKPGKAPKRLIYAASTVQSGVPSRFSGSGSGTEFALTISSLQPEDFATYYCLQHNSFPWTFGQGTKVDIK
notes: periplasmic prep
Take B6: the “median [+ligand]/median [w/o ligand]*100” value was no less than 75%.

B7: FL-50 scFv (scFv)
scFv: QVTLKESGPTLVKPTETLTLTCTVSGFSLSNARMGVSWIRQPPGKCLEWLAHIFSNDEKSYSTSLKSRLTISKDTSKSQVVLTMTNMDPVDTATYYCARIPGYGGNFYYHYYGMDVWGQGTTVTVSSGGGGSGGGGSGGGGSDIQMTQSPSSLSASVGDRVTITCRASQGIRNDLAWYQQKPGKAPKRLIYAASTVQSGVPSRFSGSGSGTEFALTISSLQPEDFATYYCLQHNSFPWTFGCGTKVDIK
notes: periplasmic prep
Turning to B7, the “median [+ligand]/median [w/o ligand]*100” value was no less than 75%.

B8: FL-21 scFv (scFv)
scFv: QVTLKESGPALVKPTETLTLTCTFSGFSLSNARMGVSWIRQPPGKALEWLAHIFSNDEKSYSTSLKSRLTISKDTSKSQVVLTMTNMDPVDTATYYCARIPGYGGNFYYHYYGMDVWGQGTTVTVSSGGGGSGGGGSGGGGSDIQMTQSPSSLSASVGDRVTITCRTSRGIRNDLGWYQQIPGRAPKRLIYAASTLQSGVPSRFSGSGSGTEFTLTISSLQPEDFATYYCLQHNNFPWTFGQGTKVEIK
notes: periplasmic prep
For the molecule B8, the “median [+ligand]/median [w/o ligand]*100” value was no less than 75%.

B9: FL-63 scFv (scFv)
scFv: QVQLVESGGGVVQPGRSLRLSCAASGFTFSSYGMHWVRQAPGKGLEWVAVISYDGSNEFYADSVKGRFTISRDNSKNTLYLQMNSLRAEDTAVYYCARGGEITMVRGVIGYYYYGMDVWGQGTTVTVSSGGGGSGGGGSGGGGSDIQMTQSPSSLSASVGDRVTITCRTSQSISSYLNWYQQKPGKAPKLLIYAASSLQSGVPSRFSGSGSGTEFTLTISSLQPEDFATYYCLQHNSYPLTFGGGTKVDIK
notes: periplasmic prep
With B9, the “median [+ligand]/median [w/o ligand]*100” value was no less than 75%.

B10: FL-64 scFv (scFv)
scFv: QVQLVESGGGVVQPGRSLRLSCAASGFTFSSYGMHWVRQAPGKGLEWVAVISYDGSNEFYADSVKGRFTISRDNSKNTLYLQMNSLRAEDTAVYYCARGGEITMVRGVIGYYYYGMDVWGQGTTVTVSSGGGGSGGGGSGGGGSDIQMTQSPSSLSASVGNRVTITCRASQSISSYLNWYQQKPGKAPKLLIYAASSLQSGVPSRFSGSGSGTEFTLTISSLQPEDFATYYCLQHNSYPLTFGGGTKVDIK
notes: periplasmic prep
For the molecule B10, the “median [+ligand]/median [w/o ligand]*100” value was no less than 75%.

B11: FL-53 scFv (scFv)
scFv: QVQLVESGGGVVQPGRSLRLSCAASGFTFSSYGMHWVRQAPGKCLEWVAVISYDGSNEFYADSVKGRFTISRDNSKNTLYLQMNSLRAEDTAVYYCARGGEITMVRGVIGYYYYGMDVWGQGTTVTVSSGGGGSGGGGSGGGGSDIQMTQSPSSLSASVGDRVTITCRTSQSISSYLNWYQQKPGKAPKLLIYAASSLQSGVPSRFSGSGSGTEFTLTISSLQPEDFATYYCLQHNSYPLTFGCGTKVDIK
notes: periplasmic prep
For B11, the “median [+ligand]/median [w/o ligand]*100” value was no less than 75%.

B12: FL-61 scFv (scFv)
scFv: QVQLVESGGGVVQPGRSLRLSCAASGFTFSSYGMHWVRQAPGKGLEWVAVISYDGSNEFYADSVKGRFTISRDNSKNTLYLQMNSLRAEDTAVYYCARGGEITMVRGVIGYYYYGMDVWGQGTTVTVSSGGGGSGGGGSGGGGSDIQMTQSPSSLSASVGDRVTITCRASQSISSYLNWYQQKPGKAPKLLIYAASSLQSGVPSRFSGSGSGTEFTLTISSLQPEDFATYYCLQHNSYPLTFGGGTKVEIK
notes: periplasmic prep
For the molecule B12, the “median [+ligand]/median [w/o ligand]*100” value was no less than 75%.

B13: FL-54 scFv (scFv)
scFv: QVQLVESGGGVVQPGRSLRLSCAASGFTFSSYGMHWVRQAPGKCLEWVAVISYDGSNEFYADSVKGRFTISRDNSKNTLYLQMNSLRAEDTAVYYCARGGEITMVRGVIGYYYYGMDVWGQGTTVTVSSGGGGSGGGGSGGGGSEIVMTQSPATLSVSPGERATLSCRASQGVRNNLVWYQQKPGQAPRLLIYGASTRATGIPARFSGSGSGTEFTLTISSLQSEDFATYYCLQHNSYPLTFGCGTKVEIK
notes: periplasmic prep
B13: the “median [+ligand]/median [w/o ligand]*100” value was no less than 75%.

B14: FL-62 scFv (scFv)
scFv: QVQLVESGGGVVQPGRSLRLSCAASGFTFSSYGMHWVRQAPGKGLEWVAVISYDGSNEFYADSVKGRFTISRDNSKNTLYLQMNSLRAEDTAVYYCARGGEITMVRGVIGYYYYGMDVWGQGTTVTVSSGGGGSGGGGSGGGGSEIVMTQSPATLSVSPGERATLSCRASQGVRNNLVWYQQKPGQAPRLLIYGASTRATGIPARFSGSGSGTEFTLTISSLQSEDFATYYCLQHNSYPLTFGGGTKVEIK
notes: periplasmic prep; also called F-62
Regarding B14, the “median [+ligand]/median [w/o ligand]*100” value is no less than 75%.

B15: FL-55 scFv (scFv)
scFv: QVQLVESGGGVVQPGRSLRLSCAASGFTFSSYGMHWVRQAPGKCLEWVAVISYDGSNKYYADSVKGRFTISRDNSKNTLYLQMNSLRAEDTAVYYCARSYGMDVWGQGTTVTVSSGGGGSGGGGSGGGGSDIQMTQSPSSVSASVGDRVTITCRASQGISSWLAWYQQKPGKAPKLLIYAASSLQSGVPSRFSGSGSGTDFTLTISSLQPEDFATYYCQQANSFPWTFGCGTKLEIK
notes: periplasmic prep
As to B15, the “median [+ligand]/median [w/o ligand]*100” value is no less than 75%.

B16: FL-65 scFv (scFv)
scFv: QVQLVESGGGVVQPGRSLRLSCAASGFTFSSYGMHWVRQAPGKGLEWVAVISYDGSNKYYADSVKGRFTISRDNSKNTLYLQMNSLRAEDTAVYYCARSYGMDVWGQGTTVTVSSGGGGSGGGGSGGGGSDIQMTQSPSSVSASVGDRVTITCRASQGISSWLAWYQQKPGKAPKLLIYAASSLQSGVPSRFSGSGSGTDFTLTISSLQPEDFATYYCQQANSFPWTFGQGTKLEIK
notes: periplasmic prep
As for B16, the “median [+ligand]/median [w/o ligand]*100” value is no less than 75%.

B17: FL-60 scFv (scFv)
scFv: QVTLKESGPALVKPTQTLTLTCTFSGFSLSNARMGVSWIRQPPGKALEWLAHIFSNDEKSYSTSLKSRLTISKDTSKRQVVLTMTNMDPVDTATYYCARMVGYGSGWYAYFDYWGQGTLVTVSSGGGGSGGGGSGGGGSDIVMTQTPLSLSVTPGQPASISCRSSQSLLHSNGYNYLYWYLQKPGQPPQLLIYEVSNRFSGVPDRFSGSGSGTDFTLKISRVEAEDVGVYYCMQALQTPLTFGGGTKVEIK
notes: periplasmic prep
As to B17, the “median [+ligand]/median [w/o ligand]*100” value is no less than 75%.

B18: FL-2 scFv (scFv)
scFv: QVTLKESGPVLVKPTETLTLTCTVSGFSLRNARMGVSWIRQPPGKALEWLAHIFSNDEKTYSTSLKSRLTISRDTSKGQVVLTMTKMDPVDTATYYCARIPYYGSGSHNYGMDVWGQGTTVTVSSGGGGSGGGGSGGGGSDIQMTQSPSSLSASVGDRVTITCRASQDIRNDFGWYQQKPGKAPQRLLYAASTLQSGVPSRFSGSGSGTEFTLTISSLQPEDFATYYCLQYNTYPWTFGQGTKVEIK
notes: periplasmic prep
With B18, the “median [+ligand]/median [w/o ligand]*100” value is no less than 75%.

B19: FL-1 scFv (scFv)
scFv: QVTLKESGPVLVKPTETLTLTCTVSGFSLINARMGVSWIRQPPGKALEWLAHIFSNAEKSYRTSLKSRLTISKDTSKSQVVLTMTNMDPVDTATYYCARIPGYGGNGDYHYYGMDVWGQGTTVTVSSGGGGSGGGGSGGGGSDIQMTQSPSSLSASLGDRVTITCRASQGIRNDLGWYQQKPGKAPKRLIYASSTLQSGVPSRFSGSGSGTEFTLTISSLQPEDFATYYCLQHNNFPWTFGQGTKVEIK
notes: periplasmic prep
On to B19, for which the “median [+ligand]/median [w/o ligand]*100” value is no less than 75%.

The values above are taken from patent US20170037149A1 (Amgen, published 2017).
